Values of other authors as cited in paper PMC11302571.

Biological target: BT-R3 (Anopheles gambiae)

Substance: Cry4B toxin (from UniProt P05519)
- Kd: 0.036 µM
